Substrate in assay [1]: F protein of RSV B-wash (strain 18537) (respiratory syncytial virus B, strain 18537) (UniProt P13843)
The assay can be described thus: cell-based or functional assay.

Substrate in assay [2]: F protein of RSV B-1 (respiratory syncytial virus B-1) (UniProt O36634)
The assay can be described thus: cell-based or functional assay.

F protein of RSV B-wash (strain 18537) (respiratory syncytial virus B, strain 18537), sequence (P13843 26-574): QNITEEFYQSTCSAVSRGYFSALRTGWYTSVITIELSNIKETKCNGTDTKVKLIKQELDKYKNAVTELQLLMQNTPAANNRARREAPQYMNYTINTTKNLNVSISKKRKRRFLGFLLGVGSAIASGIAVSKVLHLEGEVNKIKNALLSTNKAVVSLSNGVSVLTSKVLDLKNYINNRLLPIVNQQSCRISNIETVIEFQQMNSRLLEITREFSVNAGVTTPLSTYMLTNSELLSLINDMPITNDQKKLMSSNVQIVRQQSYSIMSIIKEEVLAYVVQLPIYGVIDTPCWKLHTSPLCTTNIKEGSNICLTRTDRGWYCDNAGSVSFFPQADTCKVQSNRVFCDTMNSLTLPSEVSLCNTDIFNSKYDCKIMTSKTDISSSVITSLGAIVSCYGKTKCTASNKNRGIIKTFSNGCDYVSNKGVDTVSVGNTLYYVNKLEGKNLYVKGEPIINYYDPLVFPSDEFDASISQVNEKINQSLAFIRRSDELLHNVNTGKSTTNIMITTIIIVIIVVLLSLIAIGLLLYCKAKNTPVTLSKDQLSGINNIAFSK
F protein of RSV B-1 (respiratory syncytial virus B-1), sequence (O36634 26-574): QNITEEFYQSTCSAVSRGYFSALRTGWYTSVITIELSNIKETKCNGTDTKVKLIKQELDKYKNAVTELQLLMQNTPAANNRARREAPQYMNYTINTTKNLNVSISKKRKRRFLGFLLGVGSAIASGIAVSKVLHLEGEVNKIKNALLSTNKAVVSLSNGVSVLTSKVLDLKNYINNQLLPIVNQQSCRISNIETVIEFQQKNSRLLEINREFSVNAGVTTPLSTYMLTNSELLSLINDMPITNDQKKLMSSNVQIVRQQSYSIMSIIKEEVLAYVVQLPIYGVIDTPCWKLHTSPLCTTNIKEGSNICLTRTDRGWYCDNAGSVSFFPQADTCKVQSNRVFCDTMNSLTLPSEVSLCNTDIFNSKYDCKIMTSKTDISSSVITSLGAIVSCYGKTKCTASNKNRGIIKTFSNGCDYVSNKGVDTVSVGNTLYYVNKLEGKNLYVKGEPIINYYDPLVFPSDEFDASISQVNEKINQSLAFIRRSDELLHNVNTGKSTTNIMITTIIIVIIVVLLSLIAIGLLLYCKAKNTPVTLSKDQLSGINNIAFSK

B1: IgG form of 90D3 (antibody, V domains shown)
VH: QVQLVESGGGLVKPGGSLRLSCVGSGFTLKNYEMNWVRQAPGQGLQYISYISSSGNVVKYVDSVQGRFTISRDNAGNSLYLQMNNLRAEDTATYYCVRGFSIDKYDSSVDEYWGQGIAVTVSS
VL: AIRLTQSPSSLSASVGDRVSITCRASQSISNFLNWYQQKPGRAPKLLISAASSLQGGVPSRFSGSGSGTDFTLTISSLQPEDFATYYCQQTYISLYTFGQGTKLEIKR
Regarding B1, the ED50, plaque reduction, RSV B/wash in assay [1] was determined as 1.4 nM. In assay [2], the ED50, plaque reduction, RSV B-1 was 1.4 nM.

The values are drawn from patent US20140363427A1.
